Reference: the supplement of paper PMC9112550, “Optimization of the antimicrobial peptide Bac7 by deep mutational scanning” (BMC Biology, 2022)

Test system: Escherichia coli TOP10
Assay: shrunken log2 fold change of peptide-encoding DNA abundance (4.5 h post-induction vs induction); higher = less antimicrobial activity (less host growth inhibition)
Details: time post-induction: 4.5 h; library: site-saturation at positions 5, 18, 19, 20
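Also: peptides expressed intracellularly from a pBAD plasmid library in pooled LB shake-flask culture, induced with 0.3% L-arabinose, DNA abundance read by NGS, three biological replicates, DESeq2 with apeglm shrinkage.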

Row | Sequence | shrunken log2 fold change
1 | RRIRIRPPRLPRPRPRPDCGPRP | 0.0585
2 | RRIRLRPPRLPRPRPRPKYHPRP | -0.472
3 | RRIRFRPPRLPRPRPRPENLPRP | -0.0251
4 | RRIRCRPPRLPRPRPRPCNLPRP | -0.0646
5 | RRIRQRPPRLPRPRPRPTIDPRP | -0.0223
6 | RRIRERPPRLPRPRPRPKRAPRP | -0.145
7 | RRIRNRPPRLPRPRPRPVGTPRP | -0.073
8 | RRIRMRPPRLPRPRPRPAHNPRP | 0.421
9 | RRIRCRPPRLPRPRPRPEMKPRP | 0.0473
10 | RRIRGRPPRLPRPRPRPLAKPRP | 1.29
11 | RRIRYRPPRLPRPRPRPIIVPRP | -0.249
12 | RRIRWRPPRLPRPRPRPVRLPRP | 0.428
13 | RRIRLRPPRLPRPRPRPQPWPRP | 0.319
14 | RRIRRRPPRLPRPRPRPLEHPRP | 0.21
15 | RRIRDRPPRLPRPRPRPVRAPRP | 0.325
16 | RRIRSRPPRLPRPRPRPCHNPRP | -0.364
17 | RRIRLRPPRLPRPRPRPYGGPRP | -0.0286
18 | RRIRMRPPRLPRPRPRPMKKPRP | -0.00637
19 | RRIRLRPPRLPRPRPRPVTKPRP | 0.0485
20 | RRIRVRPPRLPRPRPRPEKNPRP | 0.0805
21 | RRIRDRPPRLPRPRPRPHKKPRP | -0.00887
22 | RRIRPRPPRLPRPRPRPLHPPRP | 0.252
23 | RRIRSRPPRLPRPRPRPELQPRP | 0.239
24 | RRIRFRPPRLPRPRPRPHVHPRP | -0.0448
25 | RRIRSRPPRLPRPRPRPHIHPRP | 0.966

Row | Sequence | shrunken log2 fold change
26 | RRIRERPPRLPRPRPRPFYVPRP | -0.189
27 | RRIRSRPPRLPRPRPRPYQSPRP | 0.0187
28 | RRIRMRPPRLPRPRPRPHMVPRP | -0.0116
29 | RRIRYRPPRLPRPRPRPSMPPRP | -1.69
30 | RRIRWRPPRLPRPRPRPIEMPRP | 0.467
31 | RRIRERPPRLPRPRPRPNQVPRP | -0.0305
32 | RRIRFRPPRLPRPRPRPEPDPRP | -0.0658
33 | RRIRRRPPRLPRPRPRPGHQPRP | 0.342
34 | RRIRCRPPRLPRPRPRPLRIPRP | -0.0238
35 | RRIRTRPPRLPRPRPRPESPPRP | 0.305
36 | RRIRQRPPRLPRPRPRPSGCPRP | 0.0869
37 | RRIRDRPPRLPRPRPRPISEPRP | -0.0429
38 | RRIRKRPPRLPRPRPRPPTHPRP | 0.42
39 | RRIRRRPPRLPRPRPRPGLWPRP | 0.622
40 | RRIRWRPPRLPRPRPRPSKPPRP | -0.0185
41 | RRIRHRPPRLPRPRPRPYTHPRP | -1.46
42 | RRIRERPPRLPRPRPRPMMCPRP | -0.0137
43 | RRIRQRPPRLPRPRPRPDANPRP | 0.0607
44 | RRIRNRPPRLPRPRPRPDKVPRP | -0.00145
45 | RRIRARPPRLPRPRPRPMRMPRP | 0.784
46 | RRIRVRPPRLPRPRPRPETSPRP | -0.369
47 | RRIRNRPPRLPRPRPRPKWMPRP | -0.19
48 | RRIRTRPPRLPRPRPRPQYGPRP | -0.082
49 | RRIRQRPPRLPRPRPRPLITPRP | -0.281
50 | RRIRDRPPRLPRPRPRPCSTPRP | 0.248

Row | Sequence | shrunken log2 fold change
51 | RRIRLRPPRLPRPRPRPCEEPRP | -0.0266
52 | RRIRQRPPRLPRPRPRPMIPPRP | -0.0361
53 | RRIRQRPPRLPRPRPRPICFPRP | -0.0372
54 | RRIRIRPPRLPRPRPRPLPQPRP | -0.247
55 | RRIRKRPPRLPRPRPRPQFAPRP | -0.0223
56 | RRIRSRPPRLPRPRPRPVDWPRP | 0.306
57 | RRIRKRPPRLPRPRPRPDEIPRP | 0.0203
58 | RRIRARPPRLPRPRPRPMNQPRP | -0.135
59 | RRIRERPPRLPRPRPRPYIEPRP | -0.266
60 | RRIRCRPPRLPRPRPRPSDAPRP | -0.0145
61 | RRIRDRPPRLPRPRPRPNHDPRP | -0.312
62 | RRIRWRPPRLPRPRPRPPIAPRP | 2.1
63 | RRIRSRPPRLPRPRPRPIRQPRP | -0.0752
64 | RRIRWRPPRLPRPRPRPPHIPRP | 0.696
65 | RRIRRRPPRLPRPRPRPKQEPRP | 0.0674
66 | RRIRLRPPRLPRPRPRPDMTPRP | -0.0167
67 | RRIRHRPPRLPRPRPRPDYQPRP | -0.0951
68 | RRIRDRPPRLPRPRPRPCLAPRP | 0.291
69 | RRIRDRPPRLPRPRPRPQRCPRP | 0.121
70 | RRIRERPPRLPRPRPRPPYLPRP | -0.0371
71 | RRIRRRPPRLPRPRPRPQKDPRP | -0.151
72 | RRIRERPPRLPRPRPRPVDWPRP | 0.0136
73 | RRIRKRPPRLPRPRPRPWRPPRP | 0.177
74 | RRIRSRPPRLPRPRPRPVQMPRP | 0.0426
75 | RRIRGRPPRLPRPRPRPPCMPRP | 0.293

Row | Sequence | shrunken log2 fold change
76 | RRIRWRPPRLPRPRPRPRDPPRP | 0.241
77 | RRIRPRPPRLPRPRPRPTVWPRP | 0.747
78 | RRIRYRPPRLPRPRPRPVWVPRP | 0.127
79 | RRIRFRPPRLPRPRPRPNPCPRP | -0.349
80 | RRIRVRPPRLPRPRPRPVARPRP | 0.223
81 | RRIRSRPPRLPRPRPRPLVRPRP | 0.0873
82 | RRIRKRPPRLPRPRPRPLLKPRP | 0.00409
83 | RRIRPRPPRLPRPRPRPNRVPRP | -0.275
84 | RRIRVRPPRLPRPRPRPLMAPRP | 0.049
85 | RRIRPRPPRLPRPRPRPGKYPRP | -0.132
86 | RRIRVRPPRLPRPRPRPRNNPRP | -0.425
87 | RRIRNRPPRLPRPRPRPSGCPRP | -0.151
88 | RRIRTRPPRLPRPRPRPWYLPRP | -0.0692
89 | RRIRKRPPRLPRPRPRPHIGPRP | -0.0664
90 | RRIRPRPPRLPRPRPRPVFPPRP | 0.181
91 | RRIRRRPPRLPRPRPRPMYQPRP | -0.058
92 | RRIRVRPPRLPRPRPRPQHIPRP | -0.32
93 | RRIRRRPPRLPRPRPRPKEIPRP | 0.205
94 | RRIRGRPPRLPRPRPRPQGCPRP | 0.394
95 | RRIRVRPPRLPRPRPRPKEPPRP | 0.0639
96 | RRIRNRPPRLPRPRPRPGSQPRP | 0.0302
97 | RRIRNRPPRLPRPRPRPSWCPRP | -0.0906
98 | RRIRWRPPRLPRPRPRPLMMPRP | 0.0198
99 | RRIRRRPPRLPRPRPRPEFAPRP | 0.129
100 | RRIRARPPRLPRPRPRPCEMPRP | 0.345

Row | Sequence | shrunken log2 fold change
101 | RRIRCRPPRLPRPRPRPRATPRP | 0.509
102 | RRIRLRPPRLPRPRPRPYFYPRP | -0.942
103 | RRIRIRPPRLPRPRPRPFAQPRP | -0.108
104 | RRIRCRPPRLPRPRPRPFKGPRP | 0.0401
105 | RRIRDRPPRLPRPRPRPKFPPRP | -0.237
106 | RRIRQRPPRLPRPRPRPVSSPRP | -0.255
107 | RRIRWRPPRLPRPRPRPRECPRP | 0.605
108 | RRIRCRPPRLPRPRPRPEGLPRP | 0.0021
109 | RRIRARPPRLPRPRPRPCMRPRP | 0.238
110 | RRIRYRPPRLPRPRPRPYCCPRP | -0.145
111 | RRIRHRPPRLPRPRPRPDWHPRP | 2.17
112 | RRIRQRPPRLPRPRPRPQKSPRP | 0.0118
113 | RRIRMRPPRLPRPRPRPTMFPRP | 0.137
114 | RRIRVRPPRLPRPRPRPGYIPRP | -0.608
115 | RRIRARPPRLPRPRPRPWEPPRP | 0.18
116 | RRIRRRPPRLPRPRPRPSRKPRP | 0.129
117 | RRIRLRPPRLPRPRPRPNRCPRP | -0.231
118 | RRIRNRPPRLPRPRPRPMITPRP | -0.0996
119 | RRIRTRPPRLPRPRPRPVNTPRP | -0.103
120 | RRIRMRPPRLPRPRPRPENSPRP | 2.07
121 | RRIRDRPPRLPRPRPRPYNIPRP | -0.529
122 | RRIRYRPPRLPRPRPRPGWTPRP | -0.103
123 | RRIRERPPRLPRPRPRPQCVPRP | -0.0437
124 | RRIRHRPPRLPRPRPRPTYAPRP | -0.127
125 | RRIRLRPPRLPRPRPRPADTPRP | -0.538

Row | Sequence | shrunken log2 fold change
126 | RRIRGRPPRLPRPRPRPMTTPRP | 1.16
127 | RRIRVRPPRLPRPRPRPDGTPRP | -0.161
128 | RRIRQRPPRLPRPRPRPDMPPRP | -0.2
129 | RRIRERPPRLPRPRPRPALLPRP | -0.23
130 | RRIRYRPPRLPRPRPRPGCAPRP | -0.139
131 | RRIRIRPPRLPRPRPRPRLQPRP | 0.123
132 | RRIRCRPPRLPRPRPRPWLGPRP | 0.188
133 | RRIRKRPPRLPRPRPRPVSPPRP | 0.286
134 | RRIRARPPRLPRPRPRPEMRPRP | 1.19
135 | RRIRGRPPRLPRPRPRPCDGPRP | 0.123
136 | RRIRHRPPRLPRPRPRPEMMPRP | -0.0229
137 | RRIRNRPPRLPRPRPRPCTFPRP | -0.0494
138 | RRIRCRPPRLPRPRPRPIPVPRP | -0.376
139 | RRIRTRPPRLPRPRPRPWGSPRP | 0.0639
140 | RRIRKRPPRLPRPRPRPQKRPRP | 0.403
141 | RRIRQRPPRLPRPRPRPQCRPRP | 0.0527
142 | RRIRRRPPRLPRPRPRPEHKPRP | 0.193
143 | RRIRVRPPRLPRPRPRPHNTPRP | -0.353
144 | RRIRYRPPRLPRPRPRPIGPPRP | -0.00962
145 | RRIRGRPPRLPRPRPRPLSRPRP | 1.17
146 | RRIRPRPPRLPRPRPRPPCGPRP | 0.254
147 | RRIRWRPPRLPRPRPRPQKRPRP | 0.00899
148 | RRIRDRPPRLPRPRPRPWGMPRP | -0.165
149 | RRIRLRPPRLPRPRPRPLVDPRP | -0.0956
150 | RRIRNRPPRLPRPRPRPVDVPRP | -0.122
